pKd: −log10 of the molar value.
These substances were tested against H3K9me3 peptide NH2-…(me3)STGG-minipeg-K(5-fam)-NH2 (assay: fluorescence polarisation).

| pKd | Substance |
| --- | --- |
| 6.49 | CBX1 chromodomain V22E/K25S/D59F (domain or fragment) |
| 6.68 | CBX1 chromodomain V22E/K25E/D59S (domain or fragment) |
| 5.56 | CBX1 chromodomain, wild type (domain or fragment) |

Source: PMC6221542
